Experimental data taken from patent US20050249698A1 (priority 2002, published 2005).

How the values were obtained:
Type in all cases: in vivo, Balb/c mice
normal mice [1] = assay: Test 1: peripheral blood cell counts, sOGP for 5 days then sOGP and rhG-CSF co-administered
Method: (§1) The clean grade of the Balb/c mice, weighed from 16 to 18 g, were used and randomly grouped, 7-10 mice per group. The tests were carried out in two batches.
(§2) The mice were divided into 4 groups.
(§3) The mice in each group were sacrificed on the 14th day.
(§4) The detection indexes were as follows: • (1) The counts of the peripheral blood leucocytes (WBC), the peripheral blood lymphocytes (LY), red blood cells (RBCs) and the change of platelet were determined for each group on the first day (no drug was administered), the 5th, 8th, 10th, 12th and 14th day. • (2) The counts of marrow karyotes (BMNC) of the mice in each group and the change of the classification of the marrow were determined on the 14th day. • (3) The sections of the sternum of the mice in each group were determined on the 14th day. • (4) The weights of the spleens of the mice in each group and the sections of the […] were determined on the 14th day.

normal mice [2] = assay: Test 1: marrow karyote count and classification of the thighbone; details: 14th day, x±SE
Method: as §1, §2, §3, §4

normal mice [3] = assay: Test 1: pathologic observation of breastbone (sternum) sections; details: 14th day, Test 1, FIG. 3
Method: as §1, §2, §3, §4

normal mice [4] = assay: Test 1: spleen weight
Method: as §1, §2, §3, §4

normal mice [5] = assay: Test 1: pathologic observation of spleen sections; details: 14th day, Test 1, FIG. 4
Method: as §1, §2, §3, §4

normal mice [6] = assay: Test 2: marrow karyote count of the thighbone; details: 11th day, Test 2, simultaneous administration; x±SE
Method: as §1, §2
(§5) The mice in each group were sacrificed on the eleventh day.
(§6) The detection indexes were as follows: • (1) The counts of the peripheral blood leucocytes of the mice in each group were determined on the first day (no drug was administered), the 3rd, 5th, 7th, 9th and 11th day. • (2) The counts of marrow karyotes (BMNC) of the mice in each group were determined on the 11th day. • (3) The weights of the spleens of the mice in each group were determined on the 11th day.

normal mice [7] = assay: Test 2: spleen weight
Method: as §1, §2, §5, §6

[8] = Test 1, sOGP 5 days then co-administration, x±SE

B1: rhG-CSF: commercially available recombinant human granulocyte colony stimulating factor (protein, UniProt P09919 31-207, looked up)
Granulocyte …: TPLGPASSLPQSFLLKCLEQVRKIQGDGAALQEKLVSECATYKLCHPEELVLLGHSLGIPWAPLSSCPSQALQLAGCLSQLHSGLFLYQGLLQALEGISPELGPTLDTLQLDVADFATTIWQQMEELGMAPALQPTQGAMPAFASAFQRRAGGVLVASHLQSFLEVSYRVLRHLAQP
- % leucocyte granulocyte (normal mice [1]; [8]): 70.39 ± 1.54%
- % leucocyte lymphocyte (normal mice [1]; [8]): 29.61 ± 1.54%
- leucocyte (normal mice [1]; Test 1, x±SE): 17.59 ± 1.59 ×10^6/ml
- platelet (normal mice [1]; Test 1, x±SE): 505.43 ± 35.34 ×10^6/ml
- red blood cell (normal mice [1]; Test 1, x±SE): 6.68 ± 0.10 ×10^9/ml
- karyote/thighbone (normal mice [2]): 1.90 ± 0.13 ×10^7
- marrow: early erythroblast (normal mice [2]; thighbone marrow): 2.50 ± 0.33%
- marrow: intermediate erythroblast (normal mice [2]; thighbone marrow): 12.13 ± 1.92%
- marrow: late erythroblast (normal mice [2]; thighbone marrow): 16.00 ± 2.11%
- marrow: lymphocyte, plasma cell (normal mice [2]; thighbone marrow): 19.38 ± 2.00%
- marrow: matured granulocyte (normal mice [2]; thighbone marrow): 30.83 ± 2.77%
- marrow: myelocyte, metamyelocyte (normal mice [2]; thighbone marrow): 11.00 ± 1.00%
- marrow: primitive granulocyte (normal mice [2]; thighbone marrow): 0.63 ± 0.36%
- marrow: promyelocyte (normal mice [2]; thighbone marrow): 1.88 ± 0.44%
- pathologic observation of bone marrow cells in breastbone section (normal mice [3]): the proliferation of the bone marrow cells and the ratios among the three cell lines were normal
- spleen weight (normal mice [4]; 14th day, Test 1, x±SE): 0.252 ± 0.007 g
- spleen weight compared with the other two groups (control, sOGP) (normal mice [4]; Test 1, Table 3): significantly higher
- spleen section: matured granulocytes as share of the granulocytes (normal mice [5]): about 60%
- spleen section: megakaryocyte cell line (normal mice [5]): moderately proliferated
- spleen section: red matter (normal mice [5]): proliferated moderately
- spleen section: white matter (normal mice [5]): lightly to moderately shrunk
- karyote number/thighbone (normal mice [6]): 1.75 ± 0.12 ×10^7
- spleen weight (normal mice [7]; 11th day, Test 2, simultaneous administration, x±SE): 0.244 ± 0.017 g
- spleen weight compared with the other two groups (control, sOGP) (normal mice [7]; Test 2, Table 5): significantly higher
